Source: IntAct's records for PubMed 31515488

B1: Syntaxin-3 (Homo sapiens), Q13277 (parent)
chain: MKDRLEQLKAKQLTQDDDTDAVEIAIDNTAFMDEFFSEIEETRLNIDKISEHVEEAKKLYSIILSAPIPEPKTKDDLEQLTTEIKKRANNVRNKLKSMEKHIEEDEVRSSADLRIRKSQHSVLSRKFVEVMTKYNEAQVDFRERSKGRIQRQLEITGKKTTDEELEEMLESGNPAIFTSGIIDSQISKQALSEIEGRHKDIVRLESSIKELHDMFMDIAMLVENQGEMLDNIELNVMHTVDHVEKARDETKKAVKYQSQARKKLIIIIVLVVVLLGILALIIGLSVGLN
partner: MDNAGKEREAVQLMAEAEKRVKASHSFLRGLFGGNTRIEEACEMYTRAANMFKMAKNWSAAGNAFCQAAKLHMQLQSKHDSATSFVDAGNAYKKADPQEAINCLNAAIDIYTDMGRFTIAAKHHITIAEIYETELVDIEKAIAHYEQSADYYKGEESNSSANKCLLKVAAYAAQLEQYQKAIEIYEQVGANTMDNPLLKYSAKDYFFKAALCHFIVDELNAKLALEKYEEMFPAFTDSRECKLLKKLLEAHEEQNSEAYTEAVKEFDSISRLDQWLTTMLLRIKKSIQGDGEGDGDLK
B2: Rho guanine nucleotide exchange factor 39 (Homo sapiens), Q8N4T4 (parent)
chain: MELSCPGSRCPVQEQRARWERKRACTARELLETERRYQEQLGLVATYFLGILKAKGTLRPPERQALFGSWELIYGASQELLPYLEGGCWGQGLEGFCRHLELYNQFAANSERSQTTLQEQLKKNKGFRRFVRLQEGRPEFGGLQLQDLLPLPLQRLQQYENLVVALAENTGPNSPDHQQLTRAARLISETAQRVHTIGQKQKNDQHLRRVQALLSGRQAKGLTSGRWFLRQGWLLVVPPHGEPRPRMFFLFTDVLLMAKPRPPLHLLRSGTFACKALYPMAQCHLSRVFGHSGGPCGGLLSLSFPHEKLLLMSTDQEELSRWYHSLTWAISSQKN
partner: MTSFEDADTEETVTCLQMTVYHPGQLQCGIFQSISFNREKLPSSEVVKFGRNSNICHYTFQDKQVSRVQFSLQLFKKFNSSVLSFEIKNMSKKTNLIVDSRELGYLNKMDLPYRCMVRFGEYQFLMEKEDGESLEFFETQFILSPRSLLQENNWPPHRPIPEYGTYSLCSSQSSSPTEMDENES
B3: Methylmalonyl-CoA epimerase, mitochondrial (Homo sapiens), Q96PE7 (parent)
chain: MARVLKAAAANAVGLFSRLQAPIPTVRASSTSQPLDQVTGSVWNLGRLNHVAIAVPDLEKAAAFYKNILGAQVSEAVPLPEHGVSVVFVNLGNTKMELLHPLGRDSPIAGFLQKNKAGGMHHICIEVDNINAAVMDLKKKKIRSLSEEVKIGAHGKPVIFLHPKDCGGVLVELEQA
B4: UPF0488 protein C8orf33 (Homo sapiens), Q9H7E9 (parent)
chain: MAALGHLAGEAAAAPGPGTPCASRGARLPGPVSSARNPSTVCLCPEQPTCSNADSRAHPLGDEGGTASKKQKNKKKTRNRASVANGGEKASEKLAPEEVPLSAEAQAQQLAQELAWCVEQLELGLKRQKPTPKQKEQAIGAIRTLRSKRTPLPRKRQLMHSLFGDYRAQMEAEWREALRALRAAAYSAQVQPVDGATRKKSQRVCRPRSIWRAKATLDMPDEEFRFNFF
B5: Splicing factor 45 (Homo sapiens), Q96I25 (parent)
chain: MSLYDDLGVETSDSKTEGWSKNFKLLQSQLQVKKAALTQAKSQRTKQSTVLAPVIDLKRGGSSDDRQIVDTPPHVAAGLKDPVPSGFSAGEVLIPLADEYDPMFPNDYEKVVKRQREERQRQRELERQKEIEEREKRRKDRHEASGFARRPDPDSDEDEDYERERRKRSMGGAAIAPPTSLVEKDKELPRDFPYEEDSRPRSQSSKAAIPPPVYEEQDRPRSPTGPSNSFLANMGGTVAHKIMQKYGFREGQGLGKHEQGLSTALSVEKTSKRGGKIIVGDATEKDASKKSDSNPLTEILKCPTKVVLLRNMVGAGEVDEDLEVETKEECEKYGKVGKCVIFEIPGAPDDEAVRIFLEFERVESAIKAVVDLNGRYFGGRVVKACFYNLDKFRVLDLAEQV
partner: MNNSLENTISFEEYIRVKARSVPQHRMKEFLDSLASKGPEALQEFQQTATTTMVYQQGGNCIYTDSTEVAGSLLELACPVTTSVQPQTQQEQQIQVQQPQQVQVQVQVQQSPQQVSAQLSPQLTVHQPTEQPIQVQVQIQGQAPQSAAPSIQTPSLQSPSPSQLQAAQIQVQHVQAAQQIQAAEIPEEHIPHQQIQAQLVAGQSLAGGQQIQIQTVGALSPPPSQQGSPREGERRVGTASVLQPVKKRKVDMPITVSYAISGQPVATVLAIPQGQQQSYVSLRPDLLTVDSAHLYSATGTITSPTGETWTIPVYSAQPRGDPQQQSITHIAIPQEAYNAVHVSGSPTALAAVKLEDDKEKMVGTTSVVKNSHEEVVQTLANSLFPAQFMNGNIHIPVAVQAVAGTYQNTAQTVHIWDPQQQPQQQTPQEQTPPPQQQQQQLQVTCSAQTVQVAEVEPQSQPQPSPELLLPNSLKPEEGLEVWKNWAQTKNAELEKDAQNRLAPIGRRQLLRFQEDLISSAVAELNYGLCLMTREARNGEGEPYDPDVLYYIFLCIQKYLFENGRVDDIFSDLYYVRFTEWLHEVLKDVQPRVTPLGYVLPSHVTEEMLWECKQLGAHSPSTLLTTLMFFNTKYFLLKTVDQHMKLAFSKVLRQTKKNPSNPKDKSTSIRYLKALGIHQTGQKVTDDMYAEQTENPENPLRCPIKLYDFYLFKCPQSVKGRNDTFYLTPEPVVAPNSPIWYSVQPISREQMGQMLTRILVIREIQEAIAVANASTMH
B6: Keratin-associated protein 5-9 (Homo sapiens), P26371 (parent)
chain: MGCCGCSGGCGSSCGGCDSSCGSCGSGCRGCGPSCCAPVYCCKPVCCCVPACSCSSCGKRGCGSCGGSKGGCGSCGCSQCSCCKPCCCSSGCGSSCCQCSCCKPYCSQCSCCKPCCSSSGRGSSCCQSSCCKPCCSSSGCGSSCCQSSCCKPCCSQSRCCVPVCYQCKI
partner: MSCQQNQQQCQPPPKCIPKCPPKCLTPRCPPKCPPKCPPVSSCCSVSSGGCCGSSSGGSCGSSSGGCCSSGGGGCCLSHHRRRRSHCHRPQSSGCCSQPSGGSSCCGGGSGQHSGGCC
B7: Nuclear protein AMMECR1 (Homo sapiens), Q9Y4X0 (parent)
chain: MAAGCCGVKKQKLSSSPPSGSGGGGGASSSSHCSGESQCRAGELGLGGAGTRLNGLGGLTGGGSGSGCTLSPPQGCGGGGGGIALSPPPSCGVGTLLSTPAAATSSSPSSSSAASSSSPGSRKMVVSAEMCCFCFDVLYCHLYGYQQPRTPRFTNEPYPLFVTWKIGRDKRLRGCIGTFSAMNLHSGLREYTLTSALKDSRFPPMTRDELPRLFCSVSLLTNFEDVCDYLDWEVGVHGIRIEFINEKGSKRTATYLPEVAKEQGWDHIQTIDSLLRKGGYKAPITNEFRKTIKLTRYRSEKMTLSYAEYLAHRQHHHFQNGIGHPLPPYNHYS
B8: Segment polarity protein dishevelled homolog DVL-2 (Homo sapiens), O14641 (parent)
chain: MAGSSTGGGGVGETKVIYHLDEEETPYLVKIPVPAERITLGDFKSVLQRPAGAKYFFKSMDQDFGVVKEEISDDNARLPCFNGRVVSWLVSSDNPQPEMAPPVHEPRAELAPPAPPLPPLPPERTSGIGDSRPPSFHPNVSSSHENLEPETETESVVSLRRERPRRRDSSEHGAGGHRTGGPSRLERHLAGYESSSTLMTSELESTSLGDSDEEDTMSRFSSSTEQSSASRLLKRHRRRRKQRPPRLERTSSFSSVTDSTMSLNIITVTLNMEKYNFLGISIVGQSNERGDGGIYIGSIMKGGAVAADGRIEPGDMLLQVNDMNFENMSNDDAVRVLRDIVHKPGPIVLTVAKCWDPSPQAYFTLPRNEPIQPIDPAAWVSHSAALTGTFPAYPGSSSMSTITSGSSLPDGCEGRGLSVHTDMASVTKAMAAPESGLEVRDRMWLKITIPNAFLGSDVVDWLYHHVEGFPERREARKYASGLLKAGLIRHTVNKITFSEQCYYVFGDLSGGCESYLVNLSLNDNDGSSGASDQDTLAPLPGATPWPLLPTFSYQYPAPHPYSPQPPPYHELSSYTYGGGSASSQHSEGSRSSGSTRSDGGAGRTGRPEERAPESKSGSGSESEPSSRGGSLRRGGEASGTSDGGPPPSRGSTGGAPNLRAHPGLHPYGPPPGMALPYNPMMVVMMPPPPPPVPPAVQPPGAPPVRDLGSVPPELTASRQSFHMAMGNPSEFFVDVM
partner: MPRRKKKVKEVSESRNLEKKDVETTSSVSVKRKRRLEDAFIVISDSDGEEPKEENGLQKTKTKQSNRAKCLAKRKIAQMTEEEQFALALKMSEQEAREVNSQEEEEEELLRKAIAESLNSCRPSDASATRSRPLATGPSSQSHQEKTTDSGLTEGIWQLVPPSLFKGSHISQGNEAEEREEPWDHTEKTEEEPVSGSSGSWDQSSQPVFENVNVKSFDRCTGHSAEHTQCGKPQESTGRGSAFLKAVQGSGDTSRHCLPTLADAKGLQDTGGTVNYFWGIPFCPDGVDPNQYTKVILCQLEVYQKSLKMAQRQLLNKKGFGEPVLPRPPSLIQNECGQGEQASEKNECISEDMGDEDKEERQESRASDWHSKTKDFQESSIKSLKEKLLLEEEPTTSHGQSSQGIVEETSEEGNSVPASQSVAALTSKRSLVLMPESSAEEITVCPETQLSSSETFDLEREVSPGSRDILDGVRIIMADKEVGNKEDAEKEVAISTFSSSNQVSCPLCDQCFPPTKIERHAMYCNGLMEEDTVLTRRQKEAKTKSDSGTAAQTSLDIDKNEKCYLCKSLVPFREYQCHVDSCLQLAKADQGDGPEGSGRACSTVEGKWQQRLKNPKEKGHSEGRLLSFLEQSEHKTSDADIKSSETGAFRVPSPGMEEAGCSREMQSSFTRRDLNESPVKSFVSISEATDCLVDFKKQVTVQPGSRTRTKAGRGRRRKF

Variants of: B1
Conditions: with snab_human NAPB

effect of a mutation on the interaction	Variant
with no effect	H198Y
with no effect	G276S

Variants of: B2
Conditions: with tifa_human TIFA

effect of a mutation on the interaction	Variant
with no effect	D204N
with no effect	R230C

Variants of: B3
Conditions: with atrap_human AGTRAP

effect of a mutation on the interaction	Variant
with no effect	R143H
with no effect	A76V

Variants of: B4
Conditions: with ldoc1_human LDOC1, O95751
Sequence of ldoc1_human LDOC1, O95751 (O95751 whole entry): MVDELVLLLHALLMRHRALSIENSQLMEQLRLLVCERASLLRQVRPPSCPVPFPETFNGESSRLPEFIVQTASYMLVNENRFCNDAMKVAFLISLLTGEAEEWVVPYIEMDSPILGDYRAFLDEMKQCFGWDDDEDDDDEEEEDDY

effect of a mutation on the interaction	Variant
with no effect	G25R

Variants of: B4
Conditions: with cep70_human CEP70, Q8NHQ1
Sequence of cep70_human CEP70, Q8NHQ1 (Q8NHQ1 whole entry): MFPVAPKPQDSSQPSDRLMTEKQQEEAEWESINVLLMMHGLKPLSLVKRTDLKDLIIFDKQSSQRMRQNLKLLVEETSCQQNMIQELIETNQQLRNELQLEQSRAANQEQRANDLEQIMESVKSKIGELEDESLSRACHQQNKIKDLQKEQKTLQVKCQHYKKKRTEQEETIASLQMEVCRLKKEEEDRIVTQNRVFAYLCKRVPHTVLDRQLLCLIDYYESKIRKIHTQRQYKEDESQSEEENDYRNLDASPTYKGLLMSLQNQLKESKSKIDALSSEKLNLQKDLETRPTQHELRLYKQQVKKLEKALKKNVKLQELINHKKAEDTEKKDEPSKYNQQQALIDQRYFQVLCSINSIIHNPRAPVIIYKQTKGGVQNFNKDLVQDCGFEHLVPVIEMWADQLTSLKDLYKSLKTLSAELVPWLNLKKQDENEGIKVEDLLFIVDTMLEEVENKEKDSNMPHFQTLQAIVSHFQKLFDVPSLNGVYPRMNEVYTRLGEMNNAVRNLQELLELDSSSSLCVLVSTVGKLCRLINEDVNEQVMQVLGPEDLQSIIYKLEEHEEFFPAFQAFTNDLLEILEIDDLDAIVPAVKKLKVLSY

effect of a mutation on the interaction	Variant
with no effect	G25R

Variants of: B5
Conditions: with qric1_human QRICH1, Q2TAL8

effect of a mutation on the interaction	Variant
with no effect	T224I

Variants of: B6
Conditions: with lce1b_human LCE1B

effect of a mutation on the interaction	Variant
with no effect	Y40C

Variants of: B7
Conditions: with rbpms_human RBPMS

effect of a mutation on the interaction	Variant
with no effect	R207G

Variants of: B8
Conditions: with uimc1_human UIMC1, Q96RL1

effect of a mutation on the interaction	Variant
with no effect	R415Q
